Test results as given in US20220144956A1 (published 2022).

B1: XENP37385 – αCD5 (Cd5-A) x αTGFßRII (bispecific antibody)
heavy: EVQLKESGAELVRPGGSVKISCKGSGYTFTNFAIHWVKQSHIKTLEWIGLISTSSGDVSYNQKFKDKATMTVDKSSSTAYMELARLTSEDSAIYYCARHYGANNYFDYWGQGTLVTVSSASTKGPSVFPLAPSSKSTSGGTAALGCLVKDYFPEPVTVSWNSGALTSGVHTFPAVLQSSGLYSLSSVVTVPSSSLGTQTYICNVNHKPSDTKVDKKVEPKSCDKTHTCPPCPAPPVAGPSVFLFPPKPKDTLMISRTPEVTCVVVDVKHEDPEVKFNWYVDGVEVHNAKTKPREEEYNSTYRVVSVLTVLHQDWLNGKEYKCKVSNKALPAPIEKTISKAKGQPREPQVYTLPPSREEMTKNQVSLTCDVSGFYPSDIAVEWESDGQPENNYKTTPPVLDSDGSFFLYSKLTVDKSRWEQGDVFSCSVMHEALHNHYTQKSLSLSPGK
scFv-Fc: QLQVQESGPGLVKPSETLSLTCTVSGGSISNSYFSWGWIRQPPGKGLEWIGSFYYGEKTYYNPSLKSRATISIDTSKSQFSLKLSSVTAADTAVYYCPRGPTVIRGVIDSWGQGTLVTVSSGKPGSGKPGSGKPGSGKPGSEIVLTQSPATLSLSPGERATLSCRASQSVRSYLAWYQQKPGQAPRLLIYDASNRATGIPARFSGSGSGTDFTLTISSLEPEDFAVYYCQQRSNWPPTFGQGTKVEIKEPKSSDKTHTCPPCPAPPVAGPSVFLFPPKPKDTLMISRTPEVTCVVVDVKHEDPEVKFNWYVDGVEVHNAKTKPREEQYNSTYRVVSVLTVLHQDWLNGKEYKCKVSNKALPAPIEKTISKAKGQPREPQVYTLPPSREQMTKNQVKLTCLVKGFYPSDIAVEWESNGQPENNYKTTPPVLDSDGSFFLYSKLTVDKSRWQQGNVFSCSVMHEALHNHYTQKSLSLSPGK
light: EIVLTQSPTIMSASPGEQVTMTCRTNSSVSSSYLHWYQQKSGASPKLWIYGTSNLASGVPTRFSGSGSGTSYSLTISSVEAGDAATYFCQQYSGYPLTFGGGTKVEIKRTVAAPSVFIFPPSDEQLKSGTASVVCLLNNFYPREAKVQWKVDNALQSGNSQESVTEQDSKDSTYSLSSTLTLSKADYEKHKVYACEVTHQGLSSPVTKSFNRGEC
B2: XENP37388 – αCD5 (Cd5-B) x αTGFßRII (bispecific antibody)
heavy: QVTLKESGAELVRPGASVKLSCKASGYSFTSYWMNWVKQRPGQGLEWIGMIHPSDSETRLNQKFKDKATLTVDKSSSTAYMQLSSPTSEDSAVYYCARWGDHDDAMDFWGQGTMVTVSSASTKGPSVFPLAPSSKSTSGGTAALGCLVKDYFPEPVTVSWNSGALTSGVHTFPAVLQSSGLYSLSSVVTVPSSSLGTQTYICNVNHKPSDTKVDKKVEPKSCDKTHTCPPCPAPPVAGPSVFLFPPKPKDTLMISRTPEVTCVVVDVKHEDPEVKFNWYVDGVEVHNAKTKPREEEYNSTYRVVSVLTVLHQDWLNGKEYKCKVSNKALPAPIEKTISKAKGQPREPQVYTLPPSREEMTKNQVSLTCDVSGFYPSDIAVEWESDGQPENNYKTTPPVLDSDGSFFLYSKLTVDKSRWEQGDVFSCSVMHEALHNHYTQKSLSLSPGK
scFv-Fc: QLQVQESGPGLVKPSETLSLTCTVSGGSISNSYFSWGWIRQPPGKGLEWIGSFYYGEKTYYNPSLKSRATISIDTSKSQFSLKLSSVTAADTAVYYCPRGPTVIRGVIDSWGQGTLVTVSSGKPGSGKPGSGKPGSGKPGSEIVLTQSPATLSLSPGERATLSCRASQSVRSYLAWYQQKPGQAPRLLIYDASNRATGIPARFSGSGSGTDFTLTISSLEPEDFAVYYCQQRSNWPPTFGQGTKVEIKEPKSSDKTHTCPPCPAPPVAGPSVFLFPPKPKDTLMISRTPEVTCVVVDVKHEDPEVKFNWYVDGVEVHNAKTKPREEQYNSTYRVVSVLTVLHQDWLNGKEYKCKVSNKALPAPIEKTISKAKGQPREPQVYTLPPSREQMTKNQVKLTCLVKGFYPSDIAVEWESNGQPENNYKTTPPVLDSDGSFFLYSKLTVDKSRWQQGNVFSCSVMHEALHNHYTQKSLSLSPGK
light: DIVLTQSPASLSASVGESVTITCRPSENIYGYFAWYQQRQGKSPQLLVYNAKTLAEGVPSRFSGSGSGTHFSLKINSLQPEDFGTYYCQHHYGTPFTFGPGTKVDIKRTVAAPSVFIFPPSDEQLKSGTASVVCLLNNFYPREAKVQWKVDNALQSGNSQESVTEQDSKDSTYSLSSTLTLSKADYEKHKVYACEVTHQGLSSPVTKSFNRGEC
B3: XENP35399 – αCD5 (5D7) x αTGFßRII (bispecific antibody)
heavy: EVQLVESGGGVVQPGRSLRLSCTFSGFSLSTSGMGVGWIRQAPGKGLEWVAHIWWDDDVYYNPSLKSRLTITKDASTDTVYMELSSLRSEDTAVYYCVRRRATGTGFDYWGQGTLVTVSSASTKGPSVFPLAPSSKSTSGGTAALGCLVKDYFPEPVTVSWNSGALTSGVHTFPAVLQSSGLYSLSSVVTVPSSSLGTQTYICNVNHKPSDTKVDKKVEPKSCDKTHTCPPCPAPPVAGPSVFLFPPKPKDTLMISRTPEVTCVVVDVKHEDPEVKFNWYVDGVEVHNAKTKPREEEYNSTYRVVSVLTVLHQDWLNGKEYKCKVSNKALPAPIEKTISKAKGQPREPQVYTLPPSREEMTKNQVSLTCDVSGFYPSDIAVEWESDGQPENNYKTTPPVLDSDGSFFLYSKLTVDKSRWEQGDVFSCSVMHEALHNHYTQKSLSLSPGK
scFv-Fc: QLQVQESGPGLVKPSETLSLTCTVSGGSISNSYFSWGWIRQPPGKGLEWIGSFYYGEKTYYNPSLKSRATISIDTSKSQFSLKLSSVTAADTAVYYCPRGPTVIRGVIDSWGQGTLVTVSSGKPGSGKPGSGKPGSGKPGSEIVLTQSPATLSLSPGERATLSCRASQSVRSYLAWYQQKPGQAPRLLIYDASNRATGIPARFSGSGSGTDFTLTISSLEPEDFAVYYCQQRSNWPPTFGQGTKVEIKEPKSSDKTHTCPPCPAPPVAGPSVFLFPPKPKDTLMISRTPEVTCVVVDVKHEDPEVKFNWYVDGVEVHNAKTKPREEQYNSTYRVVSVLTVLHQDWLNGKEYKCKVSNKALPAPIEKTISKAKGQPREPQVYTLPPSREQMTKNQVKLTCLVKGFYPSDIAVEWESNGQPENNYKTTPPVLDSDGSFFLYSKLTVDKSRWQQGNVFSCSVMHEALHNHYTQKSLSLSPGK
light: NIVMTQSPSSLSASVGDRVTITCQASQDVGTAVAWYQQKPDQSPKLLIYWTSTRHTGVPDRFTGSGSGTDFTLTISSLQPEDIATYFCHQYNSYNTFGSGTKLEIKRTVAAPSVFIFPPSDEQLKSGTASVVCLLNNFYPREAKVQWKVDNALQSGNSQESVTEQDSKDSTYSLSSTLTLSKADYEKHKVYACEVTHQGLSSPVTKSFNRGEC
B4: H1 L1.55 XENP34618 (antibody, V domains shown)
VH: QLQVQESGPGLVKPSETLSLTCTVSGGSISNSYFSWGWIRQPPGKGLEWIGSFYYGEKTYYNPSLKSRATISIDTSKSQFSLKLSSVTAADTAVYYCPRGPTMIRGVIDSWGQGTLVTVSS
VL: EIVLTQSPATLSLSPGERATLSCRASQSVRSYLAWYQQKPGQAPRLLIYDASNRATGIPARFSGSGSGTDFTLTISSLEPEDFAVYYCQQRSNWPITFGQGTKVEIK
B5: H1 L1.46 XENP34609 (antibody, V domains shown)
VH: QLQVQESGPGLVKPSETLSLTCTVSGGSISNSYFSWGWIRQPPGKGLEWIGSFYYGEKTYYNPSLKSRATISIDTSKSQFSLKLSSVTAADTAVYYCPRGPTMIRGVIDSWGQGTLVTVSS
VL: EIVLTQSPATLSLSPGERATLSCRASQSVRSYLAWYQQKPGQAPRLLIYDASNRATGIPARFSGSGSGTDFTLTISSLEPEDFAVYYCQQRSSWPPTFGQGTKVEIK
B6: H1 L1.60 XENP34623 (antibody, V domains shown)
VH: QLQVQESGPGLVKPSETLSLTCTVSGGSISNSYFSWGWIRQPPGKGLEWIGSFYYGEKTYYNPSLKSRATISIDTSKSQFSLKLSSVTAADTAVYYCPRGPTMIRGVIDSWGQGTLVTVSS
VL: EIVLTQSPATLSLSPGERATLSCRASQSVRSYLAWYQQKPGQAPRLLIYDASNRATGIPARFSGSGSGTDFTLTISSLEPEDFAVYYCQQRSNWPPTFGPGTKVEIK
B7: H1 L1.59 XENP34622 (antibody, V domains shown)
VH: QLQVQESGPGLVKPSETLSLTCTVSGGSISNSYFSWGWIRQPPGKGLEWIGSFYYGEKTYYNPSLKSRATISIDTSKSQFSLKLSSVTAADTAVYYCPRGPTMIRGVIDSWGQGTLVTVSS
VL: EIVLTQSPATLSLSPGERATLSCRASQSVRSYLAWYQQKPGQAPRLLIYDASNRATGIPARFSGSGSGTDFTLTISSLEPEDFAVYYCQQRSNWPPTFGGGTKVEIK
B8: H1 L1.56 XENP34619 (antibody, V domains shown)
VH: QLQVQESGPGLVKPSETLSLTCTVSGGSISNSYFSWGWIRQPPGKGLEWIGSFYYGEKTYYNPSLKSRATISIDTSKSQFSLKLSSVTAADTAVYYCPRGPTMIRGVIDSWGQGTLVTVSS
VL: EIVLTQSPATLSLSPGERATLSCRASQSVRSYLAWYQQKPGQAPRLLIYDASNRATGIPARFSGSGSGTDFTLTISSLEPEDFAVYYCQQRSNWPLTFGQGTKVEIK
B9: H1 L1.53 XENP34616 (antibody, V domains shown)
VH: QLQVQESGPGLVKPSETLSLTCTVSGGSISNSYFSWGWIRQPPGKGLEWIGSFYYGEKTYYNPSLKSRATISIDTSKSQFSLKLSSVTAADTAVYYCPRGPTMIRGVIDSWGQGTLVTVSS
VL: EIVLTQSPATLSLSPGERATLSCRASQSVRSYLAWYQQKPGQAPRLLIYDASNRATGIPARFSGSGSGTDFTLTISSLEPEDFAVYYCQQRSNYPPTFGQGTKVEIK
B10: H1.21 L1 XENP35103 (antibody, V domains shown)
VH: QLQVQESGPGLVKPSETLSLTCTVSGGSISNSAFSWGWIRQPPGKGLEWIGSFYYGEKTYYNPSLKSRATISIDTSKSQFSLKLSSVTAADTAVYYCPRGPTMIRGVIDSWGQGTLVTVSS
VL: EIVLTQSPATLSLSPGERATLSCRASQSVRSYLAWYQQKPGQAPRLLIYDASNRATGIPARFSGSGSGTDFTLTISSLEPEDFAVYYCQQRSNWPPTFGQGTKVEIK
B11: H1 L1 XENP34287 (antibody, V domains shown)
VH: QLQVQESGPGLVKPSETLSLTCTVSGGSISNSYFSWGWIRQPPGKGLEWIGSFYYGEKTYYNPSLKSRATISIDTSKSQFSLKLSSVTAADTAVYYCPRGPTMIRGVIDSWGQGTLVTVSS
VL: EIVLTQSPATLSLSPGERATLSCRASQSVRSYLAWYQQKPGQAPRLLIYDASNRATGIPARFSGSGSGTDFTLTISSLEPEDFAVYYCQQRSNWPPTFGQGTKVEIK
B12: H1.1 L1 XENP34288 (antibody, V domains shown)
VH: QLQVQESGPGLVKPSETLSLTCTVSGGSISNSYFSWGWIRQPPGKGLEWIGSFYYGEKTYYNPSLKSRATISIDTSKSQFSLKLSSVTAADTAVYYCPRGPTVIRGVIDSWGQGTLVTVSS
VL: EIVLTQSPATLSLSPGERATLSCRASQSVRSYLAWYQQKPGQAPRLLIYDASNRATGIPARFSGSGSGTDFTLTISSLEPEDFAVYYCQQRSNWPPTFGQGTKVEIK

These binders were tested against Cyno (cynomolgus monkey) (assay: Octet).

Row | Binder | Kd [nM]
1 | B1 | 11.3
2 | B2 | 0.74
3 | B3 | 72

What follows are binders tested against T1, human TGFßRII (antigen of the Octet experiments) (human, UniProt P37173 23-166) (assay: BLI (Octet)).
T1 sequence (P37173 23-166): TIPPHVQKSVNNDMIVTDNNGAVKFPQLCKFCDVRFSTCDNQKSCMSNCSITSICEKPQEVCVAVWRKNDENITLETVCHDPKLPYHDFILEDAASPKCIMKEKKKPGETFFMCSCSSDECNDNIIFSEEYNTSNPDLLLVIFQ

Row | Binder | Kd [nM]
4 | B4 | 38
5 | B5 | 0.666
6 | B6 | 0.888
7 | B7 | 0.311
8 | B8 | 0.001
9 | B9 | 0.596

Biological target: T1, human TGFßRII (antigen of the Octet …)
Experiment: BLI (Octet)
Remark: another data set of the same source

Row | Binder | Kd [nM]
10 | B10 | 0.374
11 | B11 | 0.112
12 | B12 | 0.352
